Experiment in all cases: competition phage ELISA
In general terms: An ELISA detects its analyte on a solid surface through an enzyme-linked reagent.

The target of assay [1] is Recombinant human Bcl-xL with a 25 amino acid truncation of its C-terminus (human) (UniProt Q07817).
The target in assay [2] is mouse Mcl-1 with truncations of 151 amino acid residues at its N-terminus and 23 residues at its C-terminus (mouse) (UniProt P97287).
Assay [3] deals with Recombinant human Bcl-xL with a 25 amino acid truncation of its C-terminus (human) (UniProt Q07817). This is another data set of the same source.

Where two headings read alike, the source gives them in different places.

Sequence of mouse Mcl-1 with truncations of 151 amino acid residues at its N-terminus and 23 residues at its C-terminus (mouse) (P97287 152-308): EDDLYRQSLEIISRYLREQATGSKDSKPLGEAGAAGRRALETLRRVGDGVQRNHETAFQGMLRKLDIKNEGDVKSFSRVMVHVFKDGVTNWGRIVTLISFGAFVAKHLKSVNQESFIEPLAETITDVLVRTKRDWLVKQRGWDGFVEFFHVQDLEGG
Sequence of Recombinant human Bcl-xL with a 25 amino acid truncation of its C-terminus (human) (Q07817 1-208): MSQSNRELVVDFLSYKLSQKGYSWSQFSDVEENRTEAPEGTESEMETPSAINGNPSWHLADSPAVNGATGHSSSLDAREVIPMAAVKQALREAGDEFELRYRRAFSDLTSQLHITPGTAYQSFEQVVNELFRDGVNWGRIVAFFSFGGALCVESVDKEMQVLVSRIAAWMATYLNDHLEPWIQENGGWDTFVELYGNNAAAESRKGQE

In the case of PSSTMGQVGRQLAIIGDDINRRADSE [Bak BH3 Y23A, phage-displayed], in assay [1], the Fold/wt stood at 1 fold and the IC50 was 52 nM. In assay [2], this molecule had a Fold/wt of 6 fold and an IC50 of 117 nM.

For PSSTMGQVGRQLAIIGDDINRRYDAE [Bak BH3 S25A, phage-displayed], in assay [1], the Fold/wt was 1 fold and the IC50 amounted to 31 nM. Besides, in assay [2], the Fold/wt is 1 fold and the IC50 is 18 nM.

As to PSSTMGQVGRQLAIIGDDIARRYDSE [Bak BH3 N20A, phage-displayed], in assay [1], the Fold/wt is 2 fold and the concentration for half-maximal inhibition (IC50) turned out to be 111 nM. Moreover, in assay [2], the Fold/wt came to 1 fold and the IC50 came out at 23 nM.

In the case of NLWAAQRYGRELRRMSDEFVDSFKKG [Bad BH3 wild type, phage-displayed], in assay [1], the Fold/wt came out at 1 fold and the IC50 is 2 nM. Besides, the IC50 in assay [3] was 1 nM.

On to PSSTMGQVGRQLAIIGDDINRAYDSE [Bak BH3 R22A, phage-displayed], for which, in assay [1], the Fold/wt came out at 1 fold and the IC50 came to 37 nM. In assay [2], this molecule came in with a Fold/wt of 1 fold and a 50% inhibitory concentration (IC50) of 16 nM.

In the case of PSSTMGQVGRQLAIIGDDINRRYDSE [Bak BH3 wild type, phage-displayed], in assay [1], the Fold/wt amounted to 1 fold and the IC50 turned out to be 49 nM. In assay [2], the Fold/wt came to 1 fold and the IC50 was found to be 21 nM.

Regarding PSSTMGQVGRQLAIIGDDINRRYDSA [Bak BH3 E26A, phage-displayed], in assay [1], the Fold/wt amounted to 1 fold and the IC50 was determined as 29 nM. In addition, in assay [2], the Fold/wt was < 1 fold and the IC50 came to 10 nM.

For the molecule PSSTMGQVGRQLAIIGDDINRRYASE [Bak BH3 D24A, phage-displayed], the Fold/wt in assay [1] was 1 fold; in assay [2] it was < 1 fold. Moreover, the IC50 in assay [1] worked out at 30 nM; in assay [2], 9 nM.

For the molecule PSSTMGQVGRQLAIIGDDINARYDSE [Bak BH3 R21A, phage-displayed], in assay [1], the Fold/wt is 2 fold and the IC50 turned out to be 87 nM. In assay [2], the Fold/wt amounted to 1 fold and the IC50 was determined as 17 nM.

The IC50 is the concentration needed to halve the response being measured.

For the origin of these results see patent US20090048164A1.
